According to the RNAGym collection of RNA variant scans (doi:10.1101/gr.219683.116):

B1: mRNA-splicing (parent)
chain: AGUUGCUGCUGGGAGCUCCAGCACAGUGAAAUGGACAGAAGGGCAGAGCAA

Variants of: B1
Test: exon inclusion enrichment index; higher = more inclusion; WT1 exon 5 minigene, HEK293

Variant | exon inclusion enrichment index
C6A U7A C9A U10A G21C | 0.86
G5U G8U C9U G41U G42U | 0.11
G5C C6A U7C G8A U10A G38U A39C | 0.0552
C6A U7A C9A U10A C36U A37G | 0.602
G5C C6G U7C G8A C9A U10C | 3.14
G5A C6U U7A G8U C9A G15A | 0.0278
G5A C6U U7A G8U C9A G15U | 0.0601
G5U U7C G8A C9U | 0.504
G5U G8U C9A U10G | 0.0162
U3A U4C C6A U7A C9A U10A | 1.27
C24U A25C | 1.23
C6A U7A C9A U10A A20U G21C | 0.712
G5A C6G U7G C9A A39G | 0.00219
C6A U7C C9A U10C A14G G15U | 2.01
C6G U7C C9A U10A | 0.988
G5U G8U C9U G46C | 0.148
C6A U7C C9A U10C G15C C16A | 2.79
C9A U10G | 0.829
C6A U7A C9A U10A G26A U27G | 1.32
G5A U7G G8U U10C | 2.36
G5C C6U G8C C9U U10C G21C C22U | 1.79

Variant | exon inclusion enrichment index
G5A C6G U7G C9U U10A | 0.00106
G5C C6G U7C U10C A47G G48A | 2.55
G5A C6G U7G C9A A35U C36A | 0.001
A35U C36G | 0.00845
G11U G12C | 1.86
G5C C6A U7C G8A U10A A29G | 0.202
G5C C6G U7C U10C A25G G26U | 4.09
G5A C6U U7A G8U C9A U27G G28C | 0.0308
G5A U7C G8A U10C A37U | 1.97
G34U A35G | 0.142
G5A C6U U7A G8U C9A C24A A25U | 0.0699
G5A U7C G8A U10A G11U | 1.37
G5A C6G U7G U10G | 0.0189
C36A A37G | 0.0199
C6A U7A C9A U10A U32G | 0.041
G5A U7C C9G U10C | 2.65
G5U G8U C9U C16A U17G | 0.0387
C6A U7C C9A U10C A35U C36A | 0.00835
G5A U7C G8A U10C A30C A31U | 2.21
G5U G8U C9U U27G | 0.0266
G5C C6G G8A U10A | 0.226

Variant | exon inclusion enrichment index
G5C C6U G8C C9U U10C C36G | 1.32
G5C C6A U7C G8A U10A C22G | 0.197
U7G G8C | 2.05
G5U G8U C9U A47C G48A | 0.0919
G5C C6A U7C G8A U10A A20U G21C | 0.0942
C6A U7A C9A U10A U32C G33U | 0.476
C6A U7A C9A U10A U32C G33C | 1.09
G5C C6A G8C U10A | 0.77
G5C C6A U7C G8A U10A A37U G38C | 0.0672
G5C C6A U7C U10A | 0.259
G5A C6U U7A G8U C9A G34C A35C | 0.00243
G5A U7C G8A U10C G15C C16G | 2.13
G5A U7C G8A U10C A23C | 1.89
G5A C6G U7G C9A G38U A39G | 0.00105
C6A U7C C9A U10C G21C C22A | 3.4
G5U G8U C9U G33A G34A | 0.0153
U3G U4G C6A U7A C9A U10A | 0.0489
G5A C6U U7A G8U C9A A31C U32C | 0.363
G5A U7C G8A U10C U17A C18A | 1.29
G5C C6U G8C C9U U10C A35C C36G | 1.57
G5U G8C C9G | 1.51

Variant | exon inclusion enrichment index
C6A U7C C9A U10C G46A A47G | 1.33
G5C C6G U7C U10C G34C A35C | 0.321
G5C C6G U7C U10C G34C A35G | 2.84
C6A U7A C9A U10A A29C A30U | 0.34
C6A U7C G8C C9G U10C | 2.26
C6A U7C C9A U10C C22U A23C | 2.11
C6A U7A U10C | 2.53
G5C C6G U7A G8C C9U U10C | 3.05
G5A U7C G8A U10C G15A C16U | 1.55
G5A U7C G8A U10C G15A C16G | 1.31
G5C C6A U7C G8A U10A C19U A20C | 0.0561
G5C C6G U7C U10C C24A A25G | 3.65
C6A U7C G8C U10C | 2.08
G5A U7C G8U C9U U10C | 1.17
C6A U7A C9A U10A G48A | 1.3
G5A C6U U7A C9G | 0.0115
G5C C6A U7C G8A U10A G43A C44G | 0.71
G5C C6G U7C U10C C22A | 3.06
C6A U7C C9A U10C C44A A45G | 4.86
U3G G5C C6A U7C G8A U10A | 0.043
